Reference: patent US20250129145A1 (Ablynx, published 2025)

Assays:
human serum albumin [1] = molecular target: T1, human serum albumin (human, UniProt P02768 25-609); assay: SPR Biacore 8K+, HSA immobilized (C1 chip), pH 6.0, bivalent analyte fit (KD1)
T1 construct: Bought protein; also called HSA
Protocol: (§1) The constructs containing a 9GS and 35GS linker between the albumin-binding building blocks were selected for further characterization. The affinities of the purified ISVD expression constructs for human and mouse serum albumin (HSA and MSA, respectively) at pH 6.0 and pH 7.4 were determined on a Biacore 8K+ instrument. HSA or MSA (HSA: Sigma-Aldrich-Sigma, Cat No. A8763; MSA: Albumin Bioscience, Cat No. 2601) was immobilized on a Series S Sensor Chip C1. The fusion proteins as described in Table 7 above were injected at 9 different concentrations (between 0.6 and 2000 nM) and allowed to associate for 120 s at 30 μL/min and dissociate for 600 s. Evaluation of the sensorgrams was based on the bivalent analyte fit.

human serum albumin [2] = molecular target: T1, human serum albumin; assay: SPR Biacore 8K+, HSA immobilized (C1 chip), pH 6.0, bivalent analyte fit (ka1)
Protocol: as §1

human serum albumin [3] = molecular target: T1, human serum albumin; assay: SPR Biacore 8K+, HSA immobilized (C1 chip), pH 6.0, bivalent analyte fit (kd1)
Protocol: as §1

human serum albumin [4] = molecular target: T1, human serum albumin; assay: SPR Biacore 8K+, HSA immobilized (C1 chip), pH 7.4, bivalent analyte fit (KD1)
Protocol: as §1

human serum albumin [5] = molecular target: T1, human serum albumin; assay: SPR Biacore 8K+, HSA immobilized (C1 chip), pH 7.4, bivalent analyte fit (ka1)
Protocol: as §1

human serum albumin [6] = molecular target: T1, human serum albumin; assay: SPR Biacore 8K+, HSA immobilized (C1 chip), pH 7.4, bivalent analyte fit (kd1)
Protocol: as §1

mouse serum albumin [7] = molecular target: T2, mouse serum albumin (mouse, UniProt P07724 25-608); assay: SPR Biacore 8K+, MSA immobilized (C1 chip), pH 6.0, bivalent analyte fit (KD1)
T2 construct: Bought protein; also called MSA
Protocol: as §1

mouse serum albumin [8] = molecular target: T2, mouse serum albumin; assay: SPR Biacore 8K+, MSA immobilized (C1 chip), pH 6.0, bivalent analyte fit (ka1)
Protocol: as §1

mouse serum albumin [9] = molecular target: T2, mouse serum albumin; assay: SPR Biacore 8K+, MSA immobilized (C1 chip), pH 6.0, bivalent analyte fit (kd1)
Protocol: as §1

mouse serum albumin [10] = molecular target: T2, mouse serum albumin; assay: SPR Biacore 8K+, MSA immobilized (C1 chip), pH 7.4, bivalent analyte fit (KD1)
Protocol: as §1

mouse serum albumin [11] = molecular target: T2, mouse serum albumin; assay: SPR Biacore 8K+, MSA immobilized (C1 chip), pH 7.4, bivalent analyte fit (ka1)
Protocol: as §1

mouse serum albumin [12] = molecular target: T2, mouse serum albumin; assay: SPR Biacore 8K+, MSA immobilized (C1 chip), pH 7.4, bivalent analyte fit (kd1)
Protocol: as §1

human serum albumin [13] = molecular target: T1, human serum albumin; assay: SPR ProteOn XPR36, HSA immobilized (GLC sensor), pH 6.0, Langmuir 1:1 fit
Protocol: (§2) In a first experiment, the affinities of monovalent (ALB00223) and a bivalent ALB23002 construct (T032200003) for human and mouse serum albumin (HSA and MSA, respectively) at pH 6.0 and pH 7.4 were determined on a ProteOn XPR36 instrument (Bio-rad Laboratories, Inc.). HSA or MSA (HSA: Sigma-Aldrich—Sigma, Cat No. A8763; MSA: Albumin Bioscience, Cat No. 2601) was immobilized via amine coupling on a GLC sensor (short matrix, normal capacity). The constructs were injected at 6 different concentrations (between 0.95 and 500 nM) and allowed to associate for 120 s at 45 μL/min and dissociate for 600 s. Evaluation of the sensorgrams was based on the Kinetic Langmuir 1:1 (simultaneous ka/kd) fit.

human serum albumin [14] = molecular target: T1, human serum albumin; assay: SPR ProteOn XPR36, HSA immobilized (GLC sensor), pH 7.4, Langmuir 1:1 fit
Protocol: as §2

mouse serum albumin [15] = molecular target: T2, mouse serum albumin; assay: SPR ProteOn XPR36, MSA immobilized (GLC sensor), pH 6.0, Langmuir 1:1 fit
Protocol: as §2

mouse serum albumin [16] = molecular target: T2, mouse serum albumin; assay: SPR ProteOn XPR36, MSA immobilized (GLC sensor), pH 7.4, Langmuir 1:1 fit
Protocol: as §2

T2 sequence (P07724 25-608 limits assumed): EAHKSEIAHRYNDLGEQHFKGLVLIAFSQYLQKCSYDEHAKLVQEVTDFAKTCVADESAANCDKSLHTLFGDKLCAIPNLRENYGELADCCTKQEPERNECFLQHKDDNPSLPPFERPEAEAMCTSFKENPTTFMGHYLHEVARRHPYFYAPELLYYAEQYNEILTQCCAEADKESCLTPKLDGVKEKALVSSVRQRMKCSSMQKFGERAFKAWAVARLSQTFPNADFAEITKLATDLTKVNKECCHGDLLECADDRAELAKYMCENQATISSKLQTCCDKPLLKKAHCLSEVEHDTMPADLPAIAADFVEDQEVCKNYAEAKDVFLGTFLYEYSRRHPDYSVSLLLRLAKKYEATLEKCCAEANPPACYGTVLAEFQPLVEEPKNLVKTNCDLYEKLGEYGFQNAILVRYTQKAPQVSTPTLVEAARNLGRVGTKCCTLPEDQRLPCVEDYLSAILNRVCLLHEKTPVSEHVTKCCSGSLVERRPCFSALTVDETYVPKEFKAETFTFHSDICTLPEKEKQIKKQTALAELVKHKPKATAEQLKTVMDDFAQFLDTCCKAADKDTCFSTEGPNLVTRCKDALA

Kd (human serum albumin [1]) [nM] | kon (human serum albumin [2]) [M⁻¹ s⁻¹] | koff (human serum albumin [3]) [s⁻¹] | Kd (human serum albumin [4]) [nM] | kon (human serum albumin [5]) [M⁻¹ s⁻¹] | koff (human serum albumin [6]) [s⁻¹] | Kd (mouse serum albumin [7]) [nM] | kon (mouse serum albumin [8]) [M⁻¹ s⁻¹] | koff (mouse serum albumin [9]) [s⁻¹] | Kd (mouse serum albumin [10]) [nM] | kon (mouse serum albumin [11]) [M⁻¹ s⁻¹] | koff (mouse serum albumin [12]) [s⁻¹] | Binder | other results
8.8 | 180000 | 0.0016 | 9.9 | 160000 | 0.0016 | 100 | 58000 | 0.0059 | 140 | 32000 | 0.0043 | T026301365 (VHH, not shown: large carriers; small tags and cut ends, Tetravalent ISVD fusion protein made in P. pastoris; X and Y are undisclosed target ISVDs; also called X-9GS-Y-9GS-ALB23002-35GS-Alb223) EVQLVESGGGVVQPGGSLRLSCAASGFTFRSFGMSWVRQAPGKGPEWVSSISGSGSDTLYADSVKGRFTISRDNSKNTLYLQMNSLRPEDTALYYCTIGGSLSRSSQGTLVTVSSGGGGSGGGGSGGGGSGGGGSGGGGSGGGGSGGGGSEVQLVESGGGVVQPGGSLRLSCAASGFTFRSFGMSWVRQAPGKGPEWVSSISGSGSDTLYADSVKGRFTISRDNSKNTLYLQMNSLRPEDTALYYCTIGGSLSRSSQGTLVTVSSA | –
9 | 170000 | 0.0015 | 12 | 120000 | 0.0015 | 210 | 190000 | 0.04 | 210 | 170000 | 0.034 | T026301360 (VHH, not shown: large carriers; small tags and cut ends, Tetravalent ISVD fusion protein made in P. pastoris; X and Y are undisclosed target ISVDs; also called X-9GS-Y-9GS-ALB23002-9GS-Alb223; X-Y-Alb23002-Alb223) EVQLVESGGGVVQPGGSLRLSCAASGFTFRSFGMSWVRQAPGKGPEWVSSISGSGSDTLYADSVKGRFTISRDNSKNTLYLQMNSLRPEDTALYYCTIGGSLSRSSQGTLVTVSSGGGGSGGGSEVQLVESGGGVVQPGGSLRLSCAASGFTFRSFGMSWVRQAPGKGPEWVSSISGSGSDTLYADSVKGRFTISRDNSKNTLYLQMNSLRPEDTALYYCTIGGSLSRSSQGTLVTVSSA | –
– | – | – | – | – | – | – | – | – | – | – | – | T032200003 (VHH, also called ALB23002-35GS-ALB23002; bivalent ALB23002 construct) EVQLVESGGGVVQPGGSLRLSCAASGFTFRSFGMSWVRQAPGKGPEWVSSISGSGSDTLYADSVKGRFTISRDNSKNTLYLQMNSLRPEDTALYYCTIGGSLSRSSQGTLVTVSSGGGGSGGGGSGGGGSGGGGSGGGGSGGGGSGGGGSEVQLVESGGGVVQPGGSLRLSCAASGFTFRSFGMSWVRQAPGKGPEWVSSISGSGSDTLYADSVKGRFTISRDNSKNTLYLQMNSLRPEDTALYYCTIGGSLSRSSQGTLVTVSS | Kd (human serum albumin [13]): 0.512 nM; koff (human serum albumin [13]): 0.000388 s⁻¹; kon (human serum albumin [13]): 759000 M⁻¹ s⁻¹; Kd (human serum albumin [14]): 0.865 nM; koff (human serum albumin [14]): 0.000461 s⁻¹; kon (human serum albumin [14]): 533000 M⁻¹ s⁻¹; Kd (mouse serum albumin [15]): 1.61 nM; koff (mouse serum albumin [15]): 0.00164 s⁻¹; kon (mouse serum albumin [15]): 1.02e+06 M⁻¹ s⁻¹; Kd (mouse serum albumin [16]): 1.96 nM; koff (mouse serum albumin [16]): 0.00167 s⁻¹; kon (mouse serum albumin [16]): 854000 M⁻¹ s⁻¹
